B1: mAb-EspB-B7 (antibody, V domains shown)
VH: EVQLLESGGGLVQPGGSLRLSCAASGFTFSHYAMNWVRQAPGKGLEWVSAINSNGDSTYYPDTVKDRFTISRDNSKNTLYLQMNSLRAEDTAVYYCARDRRAGYFDYWGQGTLVTVSS
VL: DIVLTQPPSASGTPGQRVTISCSGSRDNIGKNYVSWYQQLPGTAPKLLIYRNNQRPSGVPDRFSGSKSGTSASLAISGLRSEDEADYYCSAWDTSLNAYVFGPGTQLTVL

What was measured:
[1] = molecular target: EspB cyclic peptide #50 (positions 197-211) (Enteropathogenic Escherichia coli (EPEC)); experiment: ELISA, plate coated with peptide #50, serially diluted mAb, anti-human IgG-HRP
[2] = molecular target: EspB cyclic peptide #49 (positions 193-207) (Enteropathogenic Escherichia coli (EPEC)); experiment: ELISA, plate coated with peptide #49, serially diluted mAb, anti-human IgG-HRP
[3] = molecular target: mAb-EspB-B7

| Binder | EC50 (read off the curve) [1] | EC50 (read off the curve) [2] | IC50 (read off the curve) [3] |
| --- | --- | --- | --- |
| B1 | 0.5 µg/mL | 0.5 µg/mL | – |
| CTSAQKASQVAEEAADC (modifications not checked) [EspB cyclic peptide #49 (positions 193-207)] | – | – | 0.8 µg/mL |
